The target of this assay is VLDL receptor (Homo sapiens, UniProt P98155). Put plainly: SPR.

B1: NDSK-II fragment of fibrin NDSK-II (central region) (protein)
chain 1: ADSGEGDFLAEGGGVRGPRVVERHQSACKDSDWPFCSDEDWNYKCPSGCRMKGLIDEVNQDFTNRINKLKNSLFEYQKNNKDSHSLTTNIMEILRGDFSSANNRDNTYNRVSEDLRSRIEVLKRKVIEKVQHIQLLQKNVRAQLVDMKRLEVDIDIKIRSCRGSCSRALAREVDLKDYEDQQKQLEQVIAKDLLPSRDRQHLPLIKMKPVPDLVPGNFKSQLQKVPPEWKALTDMPQMRMELERPGGNEITRGGSTSYGTGSETESPRNPSSAGSWNSGSSGPGSTGNRNPGSSGTGGTATWKPGSSGPGSTGSWNSGSSGTGSTGNQNPGSPRPGSTGTWNPGSSERGSAGHWTSESSVSGSTGQWHSESGSFRPDSPGSGNARPNNPDWGTFEEVSGNVSPGTRREYHTEKLVTSKGDKELRTGKEKVTSGSTTTTRRSCSKTVTKTVIGPDGHKEVTKEVVTSEDGSDCPEAMDLGTLSGIGTLDGFRHRHPDEAAFFDTASTGKTFPGFFSPMLGEFVSETESRGSESGIFTNTKESSSHHPGIAEFPSRGKSSSYSKQFTSSTSYNRGDSTFESKSYKMADEAGSEADHEGTHSTKRGHAKSRPVRDCDDVLQTHPSGTQSGIFNIKLPGSSKIFSVYCDQETSLGGWLLIQQRMDGSLNFNRTWQDYKRGFGSLNDEGEGEFWLGNDYLHLLTQRGSVLRVELEDWAGNEAYAEYHFRVGSEAEGYALQVSSYEGTAGDALIEGSVEEGAEYTSHNNMQFSTFDRDADQWEENCAEVYGGGWWYNNCQAANLNGIYYPGGSYDPRNNSPYEIENGVVWVSFRGADYSLRAVRMKIRPLVTQ
chain 2: QGVNDNEEGFFSARGHRPLDKKREEAPSLRPAPPPISGGGYRARPAKAAATQKKVERKAPDAGGCLHADPDLGVLCPTGCQLQEALLQQERPIRNSVDELNNNVEAVSQTSSSSFQYMYLLKDLWQKRQKQVKDNENVVNEYSSELEKHQLYIDETVNSNIPTNLRVLRSILENLRSKIQKLESDVSAQMEYCRTPCTVSCNIPVVSGKECEEIIRKGGETSEMYLIQPDSSVKPYRVYCDMNTENGGWTVIQNRQDGSVDFGRKWDPYKQGFGNVATNTDGKNYCGLPGEYWLGNDKISQLTRMGPTELLIEMEDWKGDKVKAHYGGFTVQNEANKYQISVNKYRGTAGNALMDGASQLMGENRTMTIHNGMFFSTYDRDNDGWLTSDPRKQCSKEDGGGWWYNRCHAANPNGRYYWGGQYTWDMAKHGTDDGVVWMNWKGSWYSMRKMSMKIRPFFPQQ
chain 3: YVATRDNCCILDERFGSYCPTTCGIADFLSTYQTKVDKDLQSLEDILHQVENKTSEVKQLIKAIQLTYNPDESSKPNMIDAATLKSRKMLEEIMKYEASILTHDSSIRYLQEIYNSNNQKIVNLKEKVAQLEAQCQEPCKDTVQIHDITGKDCQDIANKGAKQSGLYFIKPLKANQQFLVYCEIDGSGNGWTVFQKRLDGSVDFKKNWIQYKEGFGHLSPTGTTEFWLGNEKIHLISTQSAIPYALRVELEDWNGRTSTADYAMFKVGPEADKYRLTYAYFAGGDAGDAFDGFDFGDDPSDKFFTSHNGMQFSTWDNDNDKFEGNCAEQDGSGWWMNKCHAGHLNGVYYQGGTYSKASTPNGYDNGIIWATWKTRWYSMKKTTMKIIPFNRLTIGEGQQHHLGGAKQVRPEHPAETEYDSLYPEDDL
B1: the Kd is 9.6 nM.

By Kd is commonly meant the constant that tells how readily two partners part at equilibrium. High values mean weaker binding, low ones tighter binding.
